Legend:
Test in all cases: pull-down; 2 μg GST fusion protein on glutathione beads with 2 μg His-tagged Arl4A in 1 ml binding buffer (20 mM Tris-HCl pH 8.0, 150 mM NaCl, 5 mM MgCl2, 1 mM EDTA, 1 mM DTT, 10% glycerol, 1% Triton X-100), 1 h at 4 °C; anti-His blot
Conditions in all cases: both partners purified
His-tagged Arl4A Q79L = biological target: T1, His-tagged Arl4A Q79L (UniProt P40617 1-200, Q79L)
T1 construct: Arl4A, mutant Q79L; source: recombinant, purified (Ni-NTA resin)
T1 sequence (looked up): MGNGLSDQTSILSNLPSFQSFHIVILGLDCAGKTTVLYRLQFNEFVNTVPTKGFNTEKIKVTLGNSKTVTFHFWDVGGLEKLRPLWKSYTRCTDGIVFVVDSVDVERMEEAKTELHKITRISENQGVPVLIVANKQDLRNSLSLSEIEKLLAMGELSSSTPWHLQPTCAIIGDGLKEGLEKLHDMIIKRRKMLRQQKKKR

His-tagged Arl4A T51N = biological target: T2, His-tagged Arl4A T51N (UniProt P40617 1-200, T51N)
T2 construct: Arl4A, mutant T51N; also called His-Arl4A T51N; source: recombinant, purified (Ni-NTA resin)
T2 sequence (looked up): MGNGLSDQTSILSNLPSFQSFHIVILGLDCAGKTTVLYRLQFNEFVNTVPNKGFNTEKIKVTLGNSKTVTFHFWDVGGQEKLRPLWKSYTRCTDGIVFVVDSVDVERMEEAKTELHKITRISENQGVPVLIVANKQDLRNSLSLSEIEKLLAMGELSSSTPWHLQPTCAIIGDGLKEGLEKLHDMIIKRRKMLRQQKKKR

His-tagged Arl4A WT = biological target: T3, His-tagged Arl4A WT (UniProt P40617 1-200)
T3 construct: Arl4A, wild type; also called His-Arl4A; source: recombinant, purified (Ni-NTA resin)
T3 sequence (looked up): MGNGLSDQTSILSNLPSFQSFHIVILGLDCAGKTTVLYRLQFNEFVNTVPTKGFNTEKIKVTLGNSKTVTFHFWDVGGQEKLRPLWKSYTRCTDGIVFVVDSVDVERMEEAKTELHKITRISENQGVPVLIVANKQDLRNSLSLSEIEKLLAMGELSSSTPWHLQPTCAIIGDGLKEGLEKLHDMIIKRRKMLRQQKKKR

Measured: binding result

B1: GST-VPS36 (201–386) (domain or fragment, UniProt Q86VN1 201-386, looked up)
chain: KIKDKQGDITEDETIRFKSYLLSMGIANPVTRETYGSGTQYHMQLAKQLAGILQVPLEERGGIMSLTEVYCLVNRARGMELLSPEDLVNACKMLEALKLPLRLRVFDSGVMVIELQSHKEEEMVASALETVSEKGSLTSEEFAKLVGMSVLLAKERLLLAEKMGHLCRDDSVEGLRFYPNLFMTQS
notes: source: E. coli BL21, purified on glutathione Sepharose 4B beads
binds: all assays above

Source: paper PMC10687025, “Endosomal Arl4A attenuates EGFR degradation by binding to the ESCRT-II component VPS36” (Nature Communications, 2023)
